Experimental data taken from US20260193326A1 (published 2026).

Assays:
Assay in all cases: SPR, AAV amine-coupled to CM5 chip;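 note: nanobodies flowed as analyte at seven concentrations spanning 1–100 nM over immobilized AAV (500–800 RU), kinetic constants derived by fitting the binding curves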
[1] = target: T1, AAV5 (adeno-associated virus 5)
T1 construct: also called adeno-associated virus serotype 5
Protocol: (§1) AAV was amine-coupled to a CM5 sensor chip at a density of 500-800 response units (RU). Nanobodies were injected at seven concentrations (1-100 nM) with a flow rate of 45 μL/min, and chip regeneration was performed using glycine-HCl (pH 1.5). Binding curves at different nanobody concentrations were used to calculate kinetic parameters (Kₐ, Kd, KD) (Table 2 and FIG. 2).

[2] = target: T2, AAV9 (adeno-associated virus 9)
T2 construct: also called adeno-associated virus serotype 9
Protocol: as §1

[3] = target: T3, AAV8 (adeno-associated virus 8)
T3 construct: also called adeno-associated virus serotype 8
Protocol: as §1

B1: A4-059 (VHH)
VHH: VQLQESGGGAVQPGGSLRLSCAASGSHFSLNTMGWYRRAPGKQRELVATVTRGGSTNYADSVKGRFTISRDNAKNTIYLQMNSLRPEDTAVYYCHVDEVRQSTWTTSNLWGQGTQVTVSS
Kd [1]: 16.6 nM | koff [1]: 0.00091 s⁻¹ | kon [1]: 54900 M⁻¹ s⁻¹ | Kd [2]: 0.514 nM | koff [2]: 6e-05 s⁻¹ | kon [2]: 117000 M⁻¹ s⁻¹ | Kd [3]: 29 nM | koff [3]: 0.00094 s⁻¹ | kon [3]: 32500 M⁻¹ s⁻¹

B2: A4-079 (VHH)
VHH: VQLQESGGGLVQPGGSLRLSCAASGTRFSINTMGWYRQAPGKQRELVANVTPAGSTNYADSVKGRFTISRDNAKNTVYLQMNSLRPEDTAVYYCHVDELRDSSWTTSNLWGQGTQVTVSS
Kd [1]: 211 nM | koff [1]: 0.00083 s⁻¹ | kon [1]: 3930 M⁻¹ s⁻¹ | Kd [2]: 382 nM | koff [2]: 0.00051 s⁻¹ | kon [2]: 1340 M⁻¹ s⁻¹ | Kd [3]: 1620 nM | koff [3]: 0.0019 s⁻¹ | kon [3]: 1180 M⁻¹ s⁻¹

B3: A4-061 (VHH)
VHH: VQLQESGGGLVQPGGSLRLSCAASGSRFSLNTMGWYRQAPGKQRELVATVTRGGSTNYANSVKGRFTISRDNAKNTVYLQMNSLRPEDTAVYYCHVDEVRQSTWTTSNLWGQGTQVTVSS
Kd [1]: 86.8 nM | koff [1]: 0.00055 s⁻¹ | kon [1]: 6330 M⁻¹ s⁻¹ | Kd [2]: 273 nM | koff [2]: 0.0013 s⁻¹ | kon [2]: 4770 M⁻¹ s⁻¹ | Kd [3]: 530 nM | koff [3]: 0.00057 s⁻¹

B4: A4-075 (VHH)
VHH: VQLQESGGGLVQSGGSLRLSCAASGSMFSLNTMGWYRQAPGKQRELVATITRGGGTNYADSVKGRFTISRDNAKNTVYLQMNSLRPEDTAVYYCHVDELRQSSWTTSNLWGQGTQVTVSS
Kd [1]: 28.9 nM | koff [1]: 0.00086 s⁻¹ | kon [1]: 29800 M⁻¹ s⁻¹ | Kd [2]: 9.74 nM | koff [2]: 0.00099 s⁻¹ | kon [2]: 102000 M⁻¹ s⁻¹ | Kd [3]: 9.57 nM | koff [3]: 0.00067 s⁻¹ | kon [3]: 70000 M⁻¹ s⁻¹

B5: A4-065 (VHH)
VHH: VQLQESGGGLVQSGGSLRLSCAASGRNFSLNTVGWYRQAPGKQRELVATVTRGGSTNYAGSVKGRFTISRDNAKNTVYLQMNSLRPEDTAVYYCHVDEVRESSWTTSNLWGQGTQVTVSS
Kd [1]: 25 nM | koff [1]: 0.00155 s⁻¹ | kon [1]: 61900 M⁻¹ s⁻¹ | Kd [2]: 8.44 nM | koff [2]: 0.00139 s⁻¹ | kon [2]: 165000 M⁻¹ s⁻¹ | Kd [3]: 184 nM | koff [3]: 0.00095 s⁻¹ | kon [3]: 5180 M⁻¹ s⁻¹

B6: A4-084 (VHH)
VHH: VQLQESGGGLVQPGGSLKLSCAASGSRFSLNTMGWYRQAPRKQREFVAAVTRGGNTNYGDFVKGRFTISRDNAKNTVYLQMNSLRPEDTAVYYCHVDELRESSWTTSNLWGQGTQVTVSS
Kd [1]: 0.364 nM | koff [1]: 6e-05 s⁻¹ | kon [1]: 165000 M⁻¹ s⁻¹ | Kd [2]: 2.28 nM | koff [2]: 0.0003 s⁻¹ | kon [2]: 132000 M⁻¹ s⁻¹ | Kd [3]: 12.8 nM | koff [3]: 0.00177 s⁻¹ | kon [3]: 138000 M⁻¹ s⁻¹

B7: A4-087 (VHH)
VHH: VQLQESGGGLVQPGGSLRLSCAASGSRFSLNTMGWYRQAPGKQRELVAAVTRGGNTNYGDFVKGRFTISRDNAKNTVYLQMNSLRPEDTAVYYCHVDELRESSWTTSNLWGQGTQVTVSS
Kd [1]: 1.69 nM | koff [1]: 0.0003 s⁻¹ | kon [1]: 177000 M⁻¹ s⁻¹ | Kd [2]: 4.13 nM | koff [2]: 0.00023 s⁻¹ | kon [2]: 55700 M⁻¹ s⁻¹ | Kd [3]: 1.05 nM | koff [3]: 0.00012 s⁻¹ | kon [3]: 115000 M⁻¹ s⁻¹

B8: A4-078 (VHH)
VHH: VQLQESGGGLVQPGGSLRLSCLASGTMFSLNTMGWYRQAPGKQRELVATVTRGGSTNYADFVKGRFTISRDNAKNTVYLQMNSLRPEDTAVYYCHVDEVRDSSWTTSNLWGQGTQVTVSS
Kd [1]: 52.7 nM | koff [1]: 0.00932 s⁻¹ | kon [1]: 177000 M⁻¹ s⁻¹ | Kd [2]: 215 nM | koff [2]: 0.00618 s⁻¹ | kon [2]: 28800 M⁻¹ s⁻¹ | Kd [3]: 61.6 nM | koff [3]: 0.006 s⁻¹ | kon [3]: 97500 M⁻¹ s⁻¹

B9: A4-063 (VHH)
VHH: VQLQESGGGLVQPGGSLRLSCAASGRRFTINTMGWYRRAPGKQRELVATITRGGSTNYAGSVKGRFTISRDNPKNTVYLQMNSLRPEDTAVYYCHIDEVRQSSWTTSNLWGQGTQVTVSS
Kd [1]: 128 nM | koff [1]: 0.00834 s⁻¹ | kon [1]: 65000 M⁻¹ s⁻¹ | Kd [2]: 81.6 nM | koff [2]: 0.00401 s⁻¹ | kon [2]: 49100 M⁻¹ s⁻¹ | Kd [3]: 439 nM | koff [3]: 0.0065 s⁻¹ | kon [3]: 14800 M⁻¹ s⁻¹

B10: A4-082 (VHH)
VHH: VQLQESGGGLVQPGGSLRLSCAASGSRFSLNTMGWYRQAPGKQRELVATVTRGGSTKYADFVKGRFTISRDNAKNTVYLQMNSLRPEDTAVYYCHVDELRESGWTTSNLWGQGTQVTVSS
Kd [1]: 92.9 nM | koff [1]: 0.0005 s⁻¹ | kon [1]: 5380 M⁻¹ s⁻¹ | Kd [2]: 122 nM | koff [2]: 0.0004 s⁻¹ | kon [2]: 3290 M⁻¹ s⁻¹ | Kd [3]: 46.7 nM | koff [3]: 0.00017 s⁻¹ | kon [3]: 3640 M⁻¹ s⁻¹

B11: A4-080 (VHH)
VHH: VQLQESGGGLVQPGGSLRLSCAASGSRFSLNTMGWYRQAPGKQRELVATVTRGGSTNYADFVKGRFTISRDNAKNTVYLQMNSLRPEDTAVYYCHVDELRESGWTTSNLWGQGTQVTVSS
Kd [1]: 20.4 nM | koff [1]: 0.00194 s⁻¹ | kon [1]: 95200 M⁻¹ s⁻¹ | Kd [2]: 5.08 nM | koff [2]: 0.00074 s⁻¹ | kon [2]: 146000 M⁻¹ s⁻¹ | Kd [3]: 191 nM | koff [3]: 0.00138 s⁻¹ | kon [3]: 7220 M⁻¹ s⁻¹

B12: A4-070 (VHH)
VHH: VQLQESGGGLVQPGGSLRLSCAASGSIFSINSMGWYRQAPGKWRELVATVTRGGSTNYANSVKGRFTISRDNAKNTVYLQMNTLRPEDTAVYYCHLDEVRDSSWTTSNLWGQGTQVTVSS
Kd [1]: 86.8 nM | koff [1]: 0.00064 s⁻¹ | kon [1]: 7370 M⁻¹ s⁻¹ | Kd [2]: 35.5 nM | koff [2]: 0.00012 s⁻¹ | kon [2]: 3380 M⁻¹ s⁻¹ | Kd [3]: 20.9 nM | koff [3]: 0.00019 s⁻¹ | kon [3]: 9090 M⁻¹ s⁻¹

B13: A4-085 (VHH)
VHH: VQLQESGGGLVQPGGSLRLSCAASGSRFSLNTMGWYRQAPGKQREFVAAVTRGGNTNYGDFVKGRFTISRDNAKNTVYLQMNSLRPEDTAVYYCHVDELRESSWTTSNLWGQGTQVTVSS
Kd [1]: 192 nM | koff [1]: 0.00191 s⁻¹ | kon [1]: 9940 M⁻¹ s⁻¹ | Kd [2]: 223 nM | koff [2]: 0.0005 s⁻¹ | kon [2]: 2240 M⁻¹ s⁻¹ | Kd [3]: 108 nM | koff [3]: 0.00041 s⁻¹ | kon [3]: 3790 M⁻¹ s⁻¹

B14: A4-081 (VHH)
VHH: VQLQESGGGLVQPGGSLRLSCAASGSRFSLNTMGWYRQAPGKQRELVATVTRGGSTNYADSVKGRFTISRDNAKNTVYLQMNSLRPEDTAVYYCHVDELRESGWTTSNLWGQGTQVTVSS
Kd [1]: 12.5 nM | koff [1]: 0.00146 s⁻¹ | kon [1]: 117000 M⁻¹ s⁻¹ | Kd [2]: 13.7 nM | koff [2]: 0.00131 s⁻¹ | kon [2]: 95900 M⁻¹ s⁻¹ | Kd [3]: 6.05 nM | koff [3]: 0.00105 s⁻¹ | kon [3]: 174000 M⁻¹ s⁻¹

B15: A4-066 (VHH)
VHH: VQLQESGGGLVQTGGSLRLSCAASGRAFSLNTMGWYRQAPGKQRELVATVTRGGSTNYAGSVKGRFTISRDNAKNTVYLQMNSLRPEDTAVYYCHVDEVRESSWTTSNLWGQGTQVTVSS
Kd [1]: 20.7 nM | koff [1]: 0.00191 s⁻¹ | kon [1]: 92100 M⁻¹ s⁻¹ | Kd [2]: 32.8 nM | koff [2]: 0.00101 s⁻¹ | kon [2]: 30700 M⁻¹ s⁻¹ | Kd [3]: 21.6 nM | koff [3]: 0.002 s⁻¹ | kon [3]: 92400 M⁻¹ s⁻¹

B16: A4-062 (VHH)
VHH: VQLQESGGGLVQAGGSLRLSCAASGSSFSINAMGWYRQAPGKQRELVATVTRGGTTNYADSVKGRFTISRDNPKNTVYLQMNSLRPEDTAVYYCHLDEVRESSWTTSNLWGQGTQVTVSS
Kd [1]: 0.0635 nM | koff [1]: 1e-05 s⁻¹ | kon [1]: 157000 M⁻¹ s⁻¹ | Kd [2]: 1.83 nM | koff [2]: 6e-05 s⁻¹ | kon [2]: 32800 M⁻¹ s⁻¹ | Kd [3]: 1.39 nM | koff [3]: 0.00019 s⁻¹ | kon [3]: 137000 M⁻¹ s⁻¹

B17: A4-073 (VHH)
VHH: VQLQESGGGLVQPGGSLRLSCAASGSNFSINTMGWYRQAPGKQREMVATVTRGGSTNYGDFVKGRFTISRDNAKNTVYLQMNSLRPEDTAVYYCHVDEIRQSSWTTSNIWGQGTQVTVSS
Kd [1]: 1140 nM | koff [1]: 0.00862 s⁻¹ | kon [1]: 7530 M⁻¹ s⁻¹ | Kd [2]: 1880 nM | koff [2]: 0.00292 s⁻¹ | kon [2]: 1560 M⁻¹ s⁻¹ | Kd [3]: 1140 nM | koff [3]: 0.00619 s⁻¹ | kon [3]: 5420 M⁻¹ s⁻¹

B18: A4-069 (VHH)
VHH: VQLQESGGGLVQPGGSLRLSCAASGSIFTINSMGWYRQAPGKWRELVATVTRGGNTNYANSVKGRFTISRDNAKNTVYLQMNTLRPEDTAVYYCHLDEVRDSSWTTSNLWGQGTQVTVSS
Kd [1]: 3.58 nM | koff [1]: 0.0002 s⁻¹ | kon [1]: 55800 M⁻¹ s⁻¹ | Kd [2]: 9.34 nM | koff [2]: 0.00098 s⁻¹ | kon [2]: 105000 M⁻¹ s⁻¹ | Kd [3]: 11.6 nM | koff [3]: 0.00142 s⁻¹ | kon [3]: 122000 M⁻¹ s⁻¹

B19: A4-060 (VHH)
VHH: VQLQESGGGLVQPGGSLRLSCAASGSTFSLNTMGWYRQAPGKQREIVATVTRGGSTNYAESVKGRFTISRDNAKNTVYLQMNSLRPEDTAVYYCHVDEVRQSTWTTSNLWGQGTQVTVSS
Kd [1]: 2.45 nM | koff [1]: 0.00045 s⁻¹ | kon [1]: 184000 M⁻¹ s⁻¹ | Kd [2]: 69.2 nM | koff [2]: 0.00176 s⁻¹ | kon [2]: 25400 M⁻¹ s⁻¹ | Kd [3]: 6.63 nM | koff [3]: 0.00055 s⁻¹ | kon [3]: 82900 M⁻¹ s⁻¹

B20: A4-086 (VHH)
VHH: VQLQESGGGLVQPGGSLRLSCAASGSRFSLNTMGWYRQAPGKQRELVAAVTRGGNTNYADFVKGRFTISRDNAKNTVYLQMNSLRPEDTAVYYCHVDELRESSWTTSNLWGQGTQVTVSS
Kd [1]: 23.1 nM | koff [1]: 0.00107 s⁻¹ | kon [1]: 46400 M⁻¹ s⁻¹ | Kd [2]: 1.45 nM | koff [2]: 0.00026 s⁻¹ | kon [2]: 179000 M⁻¹ s⁻¹ | Kd [3]: 0.76 nM | koff [3]: 6e-05 s⁻¹ | kon [3]: 78900 M⁻¹ s⁻¹
